Reference: patent US20230049732A1 (UNIVERSITY OF LOUISVILLE RESEARCH FOUNDATION, published 2023)
Residue numbers refer to the chain shown, from its start.

T1: HPV16 VLPs (human papillomavirus type 16, UniProt P03101 1-505)
T1 construct: Specificity control; also called human papillomavirus VLPs
T1 sequence: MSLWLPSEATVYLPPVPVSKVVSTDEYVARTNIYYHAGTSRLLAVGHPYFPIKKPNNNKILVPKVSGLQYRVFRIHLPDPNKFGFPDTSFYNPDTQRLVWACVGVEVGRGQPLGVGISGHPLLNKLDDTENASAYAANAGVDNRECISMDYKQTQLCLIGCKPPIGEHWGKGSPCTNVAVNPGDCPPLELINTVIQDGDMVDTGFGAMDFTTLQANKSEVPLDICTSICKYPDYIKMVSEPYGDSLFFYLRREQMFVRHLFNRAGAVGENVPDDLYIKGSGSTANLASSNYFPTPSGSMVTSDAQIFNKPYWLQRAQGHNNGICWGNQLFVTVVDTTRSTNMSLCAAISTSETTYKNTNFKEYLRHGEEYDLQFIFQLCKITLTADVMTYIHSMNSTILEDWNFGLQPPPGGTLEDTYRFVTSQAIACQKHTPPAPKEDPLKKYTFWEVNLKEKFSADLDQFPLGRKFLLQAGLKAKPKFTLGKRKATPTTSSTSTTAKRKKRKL

T2: wtVLPs of parvovirus B19 genotype 1 (VP2 only) (parvovirus B19 genotype 1, UniProt P07299 228-781)
T2 construct: Intact virus-like particles self-assembled from VP2 alone, made in Sf9 cells with baculovirus; also called B19V genotype 1; Prototype Q399QYTDQ404
T2 sequence: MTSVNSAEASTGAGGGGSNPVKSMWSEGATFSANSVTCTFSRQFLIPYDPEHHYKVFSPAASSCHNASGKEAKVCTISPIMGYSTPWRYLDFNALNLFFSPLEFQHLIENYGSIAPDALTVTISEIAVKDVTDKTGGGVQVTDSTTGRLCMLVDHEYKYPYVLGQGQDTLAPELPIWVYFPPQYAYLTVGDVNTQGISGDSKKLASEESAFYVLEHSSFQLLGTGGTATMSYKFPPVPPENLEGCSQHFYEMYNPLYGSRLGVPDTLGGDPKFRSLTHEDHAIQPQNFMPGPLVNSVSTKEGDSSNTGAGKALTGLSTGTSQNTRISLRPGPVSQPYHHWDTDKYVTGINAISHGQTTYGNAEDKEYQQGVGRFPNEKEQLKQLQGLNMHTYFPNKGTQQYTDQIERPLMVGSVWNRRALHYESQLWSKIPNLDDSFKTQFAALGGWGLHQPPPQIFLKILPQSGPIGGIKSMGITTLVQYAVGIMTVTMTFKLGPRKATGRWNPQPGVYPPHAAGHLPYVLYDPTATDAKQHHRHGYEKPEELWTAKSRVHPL

T3: VLPs of B19V genotype 2 (Lali strain VP2) (parvovirus B19 genotype 2, UniProt P07299 228-781)
T3 construct: Intact VLPs of non-mutated VP2
T3 chain: T2 sequence with S32T, Q220E, T227S, S304T, N323S, M389I

T4: VLPs of B19V genotype 3 (V9 strain VP2) (parvovirus B19 genotype 3, UniProt P07299 228-781)
T4 construct: Intact VLPs of non-mutated VP2
T4 chain: T2 sequence with V21T, S32T, D191E, Q220E, T227S, P236A, V294I, S304N

B1: MAb #25 (antibody, V domains shown)
VH: QVQLQQPGAELVRPGASVKLSCKASGYTFTNYWMHWVKQRPEQGLEWIGRIDPYDSETHYNQKFKDKAILTVDTSSNTAYMQLSSLTSEDSAVYYCTSYYYGSNYVWHFDVWGAGTTVTVSS
VL: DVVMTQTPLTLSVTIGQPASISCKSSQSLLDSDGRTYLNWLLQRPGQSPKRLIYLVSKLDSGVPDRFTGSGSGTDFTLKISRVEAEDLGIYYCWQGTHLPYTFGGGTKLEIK
notes: Murine hybridoma antibody, supernatant; also called antibody 25
B2: MAb #91 (antibody, V domains shown)
VH: EVQLQQSGPELVKPGASVKISCKASGYSFTDYFMNWVKQSHGKSLEWIGRINPYNGDSFYNQNFRGSVTLTVDKSSGTAHMELLSLTSEDSTVYYCGAYRYDGYAMDYWGQGTSVTVSS
VL: DVVMTQTPLSLPVSLGDQASISCRSSQSLVHSDGNTYLHWYLQKPGQSPKLLIYKVSNRFSGVPDRFSGSGSGTDFTLKISRVEAEDLGVYFCSQSTHVPFTFGSGTKLEIK
notes: Murine hybridoma antibody, supernatant; also called antibody 91

Tests used:
HPV16 VLPs [1] = molecular target: T1, HPV16 VLPs; assay: ELISA, intact VLPs coated, hybridoma supernatant
[2] = molecular target: T2, wtVLPs of parvovirus B19 genotype 1 …; assay: ELISA, intact VLPs coated, hybridoma supernatant
HPV16 VLPs [3] = molecular target: T1, HPV16 VLPs; assay: ELISA, VLPs coated
[4] = molecular target: T3, VLPs of B19V genotype 2 (Lali strain …); assay: ELISA, VLPs coated
Experimental: (§1) First, 96-well ELISA plates (Immunolon 2; Dynatech) were coated, either 1 h at 37° C. or overnight at 4° C., with 250 to 500 ng per well of B19V VLPs. Intact VLPs were re-suspended in PBS, and the disrupted VLPs were re-suspended in the following solution: 0.2 M NaCO₃, 0.01 M dithiothreitol, pH 7.0, to detect sequential epitopes. The plates were washed three times with PBS, then saturated with bovine albumin via PBS containing 5% bovine serum albumin (5% PBSA) for 1 h at 37° C. After washing three times, plates were then incubated with primary antibodies. Primary antibodies used were rabbit sera (at 1/1000), mouse sera (1/100 dilution) to B19V VLPs, or supernatant of hybridoma cells without dilution for 1 h at 37° C. Thereafter, plates were washed thrice with PBS, then incubated with alkaline phosphatase-conjugated secondary antibodies, with either goat anti-mouse or anti-rabbit IgG (H+L) (Sigma, USA) at a dilution of 1:5000 for 1 h at 37° C. After washing with PBS, bound antibodies were detected with an alkaline phosphatase chromogenic substrate (Phosphatase substrate, Sigma, USA), and absorption was measured at 405 nm. One percent PBSA and sera collected from pre-immune animals were used as negative controls. Human papillomavirus (HPV) and mouse parvovirus (MPV) VLPs were used to check the cross-reactivity of primary antibodies with other types of VLPs. All antibodies were diluted in 1% PBSA.

[5] = molecular target: T2, wtVLPs of parvovirus B19 genotype 1 …; assay: ELISA, VLPs coated
Experimental: as §1

[6] = molecular target: T4, VLPs of B19V genotype 3 (V9 strain VP2); assay: ELISA, VLPs coated
Experimental: as §1

Binder	ELISA absorbance (405 nm) (HPV16 VLPs [1])	ELISA absorbance (405 nm) [2]	binding result (HPV16 VLPs [3])	ELISA absorbance (405 nm) [4]	ELISA absorbance (405 nm) [5]	ELISA absorbance (405 nm) [6]
B1	0.009	2.86	no binding	2.54	2.67	2.65
B2	0.005	3.72	no binding	3.09	3.43	3.05
